One assay addresses HLA-A*0301 (human). As to the kind of experiment: competition with 125I-labelled standard peptide for purified HLA-A*0301, gel filtration. As to conditions: for relative binding ratio (A*0301): scale: ratio. (In general: Size exclusion chromatography separates by hydrodynamic size, large species first.)
Setting [1] is: remark: other sources report otherwise.

Read-outs that look alike come from different tables or passages of the source.

AFRDLCIVY (modifications not checked) [HPV16 E6 position 53 peptide …]: the binding affinity ratio (IC50 of the standard peptide / IC50 of the test peptide) with HLA-A*0301 (human) was found to be 0.0052.
Take DSIPHAACH (modifications not checked) [HPV18 E6 peptide … (position 58, 9 amino acids)]: the relative binding ratio (IC50 of standard peptide / IC50 of test peptide) (ratio to standard peptide) with HLA-A*0301 (human) was 0.0005.
Consider ALYWYKTGI (modifications not checked) [HPV16 E1 … (position 318)], for which, in the assay with HLA-A*0201 (human), the relative binding ratio (IC50 of standard peptide / IC50 of test peptide) came to 0.0019.
The same measure, in the same setting: to ELSQMVQWA (modifications not checked) [HPV16 E1 356 peptide …] belongs 0.0003.
In the case of RLKAICIEK (modifications not checked) [HPV16 E1 109 …], the binding affinity ratio (IC50 of standard peptide / IC50 of test peptide) with HLA-A*0301 (human) came out at 0.084.
For AVCDKCLKF (modifications not checked), in the assay with HLA-A*0301 (human), the binding affinity ratio (IC50 of the standard peptide / IC50 of the test peptide) was determined as 0.0002.
Turning to SLACSWGMVV (modifications not checked), in the assay with HLA-A*0201 (human), the relative binding ratio (IC50 of standard peptide / IC50 of test peptide) (ratio to standard peptide) was 0.13.
For the molecule ISLNSGQKK (modifications not checked) [HPV18 E1 116 …], in the assay with HLA-A*0301 (human), the binding affinity ratio (IC50 of standard peptide / IC50 of test peptide) was determined as 0.0003.
In the case of AVCDKCLKFY (modifications not checked), the binding affinity ratio (IC50 of the standard peptide / IC50 of the test peptide) with HLA-A*0301 (human) was 0.0052.
GVLILALLR (modifications not checked) [HPV18 E1 279 …]: the binding affinity ratio (IC50 of standard peptide / IC50 of test peptide) with HLA-A*0301 (human) stood at 0.0058.
As to AGHYRGQCH (modifications not checked) [HPV18 E6 peptide … (position 131, 9 amino acids)], the relative binding ratio (IC50 of standard peptide / IC50 of test peptide) (ratio to standard peptide) with HLA-A*0301 (human) came to 0.0005.
As to KLRSTAAAL (modifications not checked) [HPV16 E1 311 …], the relative binding ratio (IC50 of standard peptide / IC50 of test peptide) with HLA-A*0201 (human) was 0.0003.
In the case of FLKSNSQAKI (modifications not checked) [HPV33 E1 peptide … (position 385, 10 amino acids)], the relative binding ratio (IC50 of standard peptide / IC50 of test peptide) (ratio to standard peptide) with HLA-A*0201 (human) turned out to be 0.0011.
For KLRAGQNHR (modifications not checked) [HPV18 E1 peptide … (position 647, 9 amino acids)], in the assay with HLA-A*0301 (human), the relative binding ratio (A*0301) was 0.3.
Consider TLSFVCPWCA (modifications not checked) [HPV18 E7 peptide … (position 93, 10 amino acids)], for which the relative binding ratio (IC50 of standard peptide / IC50 of test peptide) (ratio to standard peptide) with HLA-A*0201 (human) came out at 0.0027.
On to SLMKFLQGSV (modifications not checked) [HPV16 E1 489 …], for which the relative binding ratio (IC50 of standard peptide / IC50 of test peptide) (ratio to standard peptide) in the assay with HLA-A*0201 (human) came out at 0.025.
As for HLDKKQRFH (modifications not checked) [… (HPV16 E6, position 125)], the relative binding ratio (IC50 of standard peptide / IC50 of test peptide) (ratio to standard peptide) with HLA-A*0301 (human) (setting [1]) came out at 0.0009.
Take TLLQQYCLYL (modifications not checked) [HPV16 E1 253 …]: in the assay with HLA-A*0201 (human), the relative binding ratio (IC50 of standard peptide / IC50 of test peptide) (ratio to standard peptide) is 0.65.
KLPDLCTEL (modifications not checked) [HPV45 E6 peptide … (position 13, 9 amino acids)]: the relative binding ratio (IC50 of standard peptide / IC50 of test peptide) with HLA-A*0201 (human) (setting [1]) is 0.0035.
Take CLYLHIQSL (modifications not checked): the relative binding ratio (IC50 of standard peptide / IC50 of test peptide) with HLA-A*0201 (human) worked out at 0.076.
FLKSNSQAKI (modifications not checked) [HPV16 E1 392 peptide …]: the relative binding ratio (IC50 of standard peptide / IC50 of test peptide) in the assay with HLA-A*0201 (human) worked out at 0.0011.
For the molecule FLKSNSQAKI (modifications not checked) [HPV31 E1 372 peptide … (SEQ ID NO: 4704)], in the assay with HLA-A*0201 (human), the relative binding ratio (IC50 of standard peptide / IC50 of test peptide) (ratio to standard peptide) came out at 0.0011.
Regarding ALKRFLQGI (modifications not checked) [HPV16 E1 … (position 459)], the relative binding ratio (IC50 of standard peptide / IC50 of test peptide) with HLA-A*0201 (human) was 0.0062.
Consider SLFGMSLMK (modifications not checked) [HPV16 E1 484 …], for which the binding affinity ratio (IC50 of standard peptide / IC50 of test peptide) with HLA-A*0301 (human) stood at 0.72.
As for IVYRDGNPY (modifications not checked) [… (HPV16 E6, position 59)], the relative binding ratio (IC50 of standard peptide / IC50 of test peptide) (ratio to standard peptide) with HLA-A*0301 (human) (setting [1]) was 0.15.
With LLQQYCLYL (modifications not checked) [HPV16 E1 254 …], in the assay with HLA-A*0201 (human), the relative binding ratio (IC50 of standard peptide / IC50 of test peptide) was 0.1.
Still for that read-out and setting: for ALDGNLVSM (modifications not checked) [HPV16 E1 … (position 539)] the value was 0.027.
In the case of CMSCCRSSR (modifications not checked) [HPV16 E6 position 143 peptide …], the binding affinity ratio (IC50 of the standard peptide / IC50 of the test peptide) in the assay with HLA-A*0301 (human) was found to be 0.0033.
LMKFLQGSVI (modifications not checked) [HPV16 E1 490 …]: the relative binding ratio (IC50 of standard peptide / IC50 of test peptide) with HLA-A*0201 (human) came to 0.0003.
On the same count and under the same terms, to CLYLHIQSLA (modifications not checked) belongs 0.0032.
As for VCDKCLKFY (modifications not checked) [… (HPV16 E6, position 69)], the relative binding ratio (IC50 of standard peptide / IC50 of test peptide) (ratio to standard peptide) in the assay with HLA-A*0301 (human) was found to be 0.0002.
Regarding TAQEAKQHR (modifications not checked) [HPV16 E1 72 …], the binding affinity ratio (IC50 of standard peptide / IC50 of test peptide) in the assay with HLA-A*0301 (human) came to 0.0005.
With TLSFVCPWCA (modifications not checked) [HPV45 E7 peptide … (position 94, 10 amino acids)], in the assay with HLA-A*0201 (human), the relative binding ratio (IC50 of standard peptide / IC50 of test peptide) (ratio to standard peptide) was 0.0027.
LCPEEKQRH (modifications not checked) [… (HPV16 E6, position 117)]: in the assay with HLA-A*0301 (human), the relative binding ratio (IC50 of standard peptide / IC50 of test peptide) (ratio to standard peptide) was 0.0003.
For the molecule RFEDPTRRPY (modifications not checked) [HPV18 E6 peptide … (position 3, 10 amino acids)], in the assay with HLA-A*0301 (human), the relative binding ratio (IC50 of standard peptide / IC50 of test peptide) worked out at 0.0002.
On to LILALLRYK (modifications not checked) [HPV18 E1 peptide … (position 281, 9 amino acids)], for which the relative binding ratio (A*0301) in the assay with HLA-A*0301 (human) turned out to be 0.27.
Consider PVDLLCHEQL (modifications not checked) [HPV18 E7 peptide … (position 22, 10 amino acids)], for which the relative binding ratio (IC50 of standard peptide / IC50 of test peptide) (ratio to standard peptide) in the assay with HLA-A*0201 (human) was determined as 0.0001.
As for KSFLKGTPK (modifications not checked) [HPV18 E1 peptide … (position 468, 9 amino acids)], the relative binding ratio (A*0301) with HLA-A*0301 (human) is 0.0003.
On to PLCPEEKQR (modifications not checked) [… (HPV16 E6, position 116)], for which the relative binding ratio (IC50 of standard peptide / IC50 of test peptide) (ratio to standard peptide) with HLA-A*0301 (human) was found to be 0.0002.
As to GDTPEWIQR (modifications not checked) [HPV18 E1 341 …], the binding affinity ratio (IC50 of standard peptide / IC50 of test peptide) with HLA-A*0301 (human) was determined as 0.0008.
SCCRSSRTR (modifications not checked) [… (HPV16 E6, position 145)]: in the assay with HLA-A*0301 (human), the relative binding ratio (IC50 of standard peptide / IC50 of test peptide) (ratio to standard peptide) came to 0.0003.
Still for that read-out and setting: for TGRCMSCCR (modifications not checked) [… (HPV16 E6, position 140)] the value was 0.0003.
With AMFQDPQER (modifications not checked) [HPV16 E6 position 7 peptide …], the binding affinity ratio (IC50 of the standard peptide / IC50 of the test peptide) in the assay with HLA-A*0301 (human) (setting [1]) worked out at 0.017.
As for WTGRCMSCCR (modifications not checked) [… (HPV16 E6, position 139)], in the assay with HLA-A*0301 (human), the relative binding ratio (IC50 of standard peptide / IC50 of test peptide) (ratio to standard peptide) is 0.0003.
Same read-out and setting: to NIRGRWTGR (modifications not checked) [… (HPV16 E6, position 134)] belongs 0.0014.
As to SVICFVNSK (modifications not checked) [HPV16 E1 497 …], in the assay with HLA-A*0301 (human), the binding affinity ratio (IC50 of standard peptide / IC50 of test peptide) is 0.0005.
For CCRSSRTRR (modifications not checked) [HPV16 E6 position 146 peptide …], the binding affinity ratio (IC50 of the standard peptide / IC50 of the test peptide) with HLA-A*0301 (human) came to 0.0003.
For LTTNIHPAK (modifications not checked) [… (HPV18 E1, position 571, 9 amino acids)], the binding affinity ratio (IC50 of standard peptide / IC50 of test peptide) in the assay with HLA-A*0301 (human) was 0.091.
Turning to QLKCPPLLI (modifications not checked) [HPV16 E1 556 …], the relative binding ratio (IC50 of standard peptide / IC50 of test peptide) (ratio to standard peptide) with HLA-A*0201 (human) came out at 0.0049.
Consider EGTGCNGWF (modifications not checked) [HPV31 E1 peptide … (position 10, 9 amino acids)], for which the binding affinity ratio (IC50 of standard peptide / IC50 of test peptide) (ratio relative to standard peptide) with HLA-A*0301 (human) is 0.0008.
Regarding NSGQKKAKR (modifications not checked) [… (HPV18 E1, position 119, 9 amino acids)], the binding affinity ratio (IC50 of standard peptide / IC50 of test peptide) in the assay with HLA-A*0301 (human) was 0.0005.
Turning to FVNSKSHFWL (modifications not checked) [HPV16 E1 501 peptide …], the relative binding ratio (IC50 of standard peptide / IC50 of test peptide) with HLA-A*0201 (human) is 0.0015.
For KLRSTAAAL (modifications not checked) [HPV31 E1 peptide … (position 291, 9 amino acids)], in the assay with HLA-A*0201 (human), the relative binding ratio (IC50 of standard peptide / IC50 of test peptide) (ratio to standard peptide) was found to be 0.0003.
The same measure, in the same setting: for SLACSWGMV (modifications not checked) the value was 0.082.
Still for that read-out and setting: to QLFLNTLSFV (modifications not checked) [HPV18 E7 peptide … (position 88, 10 amino acids as printed)] belongs 0.11.
On to AVCDKCLK (modifications not checked) [HPV16 E6 position 68 peptide AVCDKCLK], for which the binding affinity ratio (IC50 of the standard peptide / IC50 of the test peptide) in the assay with HLA-A*0301 (human) was determined as 0.0053.
On to ELRHYSDSVY (modifications not checked) [HPV18 E6 peptide … (position 77, 10 amino acids)], for which the relative binding ratio (IC50 of standard peptide / IC50 of test peptide) (ratio to standard peptide) in the assay with HLA-A*0301 (human) was found to be 0.0002.
As for NIHPAKDNR (modifications not checked) [… (HPV18 E1, position 574, 9 amino acids)], the binding affinity ratio (IC50 of standard peptide / IC50 of test peptide) with HLA-A*0301 (human) is 0.0005.
